The values that follow come from patent US10669350B2, “Antigen-binding constructs that bind to and inhibit catalase and/or superoxide dismutase as well as pharmaceutical compositions containing them for tumor therapy” (priority 2015, dated 2020).

A value given as a limit tells only on which side of the number the result lay.

Experiment [1] concerns the target T1, human catalase (Homo sapiens, UniProt P04040).
T1 sequence (P04040 2-527 limits assumed): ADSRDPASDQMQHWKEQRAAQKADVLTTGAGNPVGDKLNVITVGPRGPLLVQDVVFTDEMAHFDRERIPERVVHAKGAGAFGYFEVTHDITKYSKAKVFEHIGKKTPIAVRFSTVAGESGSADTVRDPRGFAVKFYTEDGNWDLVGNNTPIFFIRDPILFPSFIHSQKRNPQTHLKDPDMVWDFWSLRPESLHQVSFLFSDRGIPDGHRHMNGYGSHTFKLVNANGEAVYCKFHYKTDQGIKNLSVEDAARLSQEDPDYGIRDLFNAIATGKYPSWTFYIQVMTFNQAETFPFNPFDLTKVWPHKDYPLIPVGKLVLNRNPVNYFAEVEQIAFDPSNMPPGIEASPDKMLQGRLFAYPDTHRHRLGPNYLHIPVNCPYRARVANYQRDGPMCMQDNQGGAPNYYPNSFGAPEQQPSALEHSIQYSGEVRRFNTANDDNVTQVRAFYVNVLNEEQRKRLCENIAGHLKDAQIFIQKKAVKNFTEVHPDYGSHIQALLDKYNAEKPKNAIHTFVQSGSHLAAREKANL
Description: Check for inhibition (neutralization) of catalase, expressed as ROS-dependent apoptosis induction in cell culture system. The format is cell-based. Also noted: catalase-neutralizing single domain VHH fragments only neutralize the membranous catalase of tumor cells; endogenous in cells; host or cells: MKN-45 human gastric carcinoma cells. From the text: For the determination of the neutralizing effect of single domain VHH or Fab fragments directed against catalase a test system is suitable that is based on the apoptosis-inducing effect of H2O2 and the degradation of H2O2 by catalase. Here, as the cellular test system both non-malignant and malignant cells can be employed. It is only required that apoptosis induction is quantitatively determinable in the selected cell system. As the H2O2 source, H2O2-generating glucose oxidase (GOX) is preferred over the direct addition of H2O2, because the continuous production of H2O2 by GOX (by using glucose from the culture medium of the cells) allows a very precise adjustment of the H2O2 flux. The test system is based on the inhibition of the apoptosis induction by GOX mediated by catalase and the restoration of the apoptosis induction by catalase-neutralizing single domain VHH or Fab fragments. […] For that, in general depending on the cell system, GOX concentrations between 0.1 and 40 mU/ml are required. In a second step, the concentration of human catalase is determined that is just sufficient to abolish the effect achieved by GOX. […] After successful determination of the suitable concentrations of GOX and catalase then the actual experiment for the determination of the catalase-neutralizing effect of single domain VHH or Fab fragments can be performed. For that, the selected catalase concentration is pre-incubated for 20 minutes with selected concentrations of the single domain VHH or Fab fragments to be tested. Subsequently, said mixture together with the concentration of GOX determined to be suitable is added to the cells and apoptosis induction is measured. A reliable neutralizing effect of the single domain VHH or Fab fragments is obtained if the inhibiting effect of the catalase on the GOX-mediated apoptosis induction was abolished by at least 90%, i.e. if 90% of the apoptosis induction value is achieved that is shown in control preparations without addition of catalase. If there is achieved an abolition of the inhibiting effect of catalase of at least 50% there may be assumed a significant inhibiting effect of the tested single domain VHH or Fab fragment. […]
[…] In a second run, by employing the cell culture system described by Heinzelmann and Bauer (Heinzelmann S. and Bauer G. Multiple protective functions of catalase against intercellular apoptosis-inducing ROS signaling of human tumor cells, Biol. Chem. 391, 675-693, 2010) it was checked which one of the single domain VHH fragments binding to catalase actually results in an inhibition of the catalase, what is expressed as ROS-dependent apoptosis induction in the cells. […] The clones underlying the single domain VHH fragments were sequenced by standard methods and the amino acid sequence was determined therefrom.

Experiment [2] deals with MKN-45 gastric carcinoma cells. Description: Standard preparation for autocrine ROS-controlled apoptosis induction in tumor cells (percentage of apoptotic cells). The format is cell-based, human. The method, then:
The experiments shown in FIG. 13-24 were carried out with a standard preparation for the apoptosis induction that is based on the method performed in Heinzelmann and Bauer 2010. The tumor cells used were taken from an optimally growing semi-sealed culture, centrifuged and placed in fresh medium. The test was performed in 96-well cell culture plates with 12 500 MKN-45 cells/100 μl medium or 10 000 SHEP cells/100 μl medium. MKN-45 cells grow in suspension, SHEP cells are adherent. The tests with SHEP cells were started as soon as the cells had grown on. By adding increasing concentrations of single domain VHH fragments that either inhibit catalase or SOD the protection of the tumor cells from their own ROS signaling was annulled so that based on the cell-owned extracellular superoxide anion production the NO/peroxynitrite signal path and the HOCl path (with MKN-45 cells) or in case of the SHEP cells only the NO/peroxynitrite path could start when the cells were incubated at 37° C. The analysis of the signal paths was carried out by the application of inhibitors of the NADPH oxidase (AEBSF), the HOCl scavenger taurine, the peroxynitrite scavenger FeTPPS and the singlet oxygen scavenger histidine. In some experiments for comparison instead of the single domain VHH fragments either recombinant Fab fragments or monoclonal antibodies were applied. This is indicated in the respective illustrations.
Double preparations were examined at the times shown in the text by means of phase contrast reverse microscopy for the percentage of apoptotic cells. Here, the classical apoptosis criteria described and documented in Heinzelmann and Bauer 2010 such as condensation of the nucleus, fragmentation of the nucleus, and membrane blebbing were used. Per single preparation at least 250 randomly selected cells were examined for the presence of apoptosis features. […]

Experiment [3] addresses T1, human catalase. Description: ELISA selection of clones binding to human catalase. From the text: […] […] In a second run, by employing the cell culture system described by Heinzelmann and Bauer (Heinzelmann S. and Bauer G. Multiple protective functions of catalase against intercellular apoptosis-inducing ROS signaling of human tumor cells, Biol. Chem. 391, 675-693, 2010) it was checked which one of the single domain VHH fragments binding to catalase actually results in an inhibition of the catalase, what is expressed as ROS-dependent apoptosis induction in the cells. […] The clones underlying the single domain VHH fragments were sequenced by standard methods and the amino acid sequence was determined therefrom.

For experiment [4], the target named is T2, human SOD1 (Homo sapiens, UniProt P00441). Description: ELISA selection of clones binding to human SOD1. The source says: The preparation was by immunizing alpacas with human SOD1 (SOD1=Cu/ZnSOD [EC 1.15.1.1] purified from human erythrocytes, obtained from Sigma (Schnelldorf), catalogue number S 9636) under supervision of a veterinary, obtaining RNA from the B cells of the animals, reverse transcription, cloning in E. coli and isolation via the phage display technology. […] In a second run, by employing the cell culture system described by Heinzelmann and Bauer (Multiple protective functions of catalase against intercellular apoptosis-inducing ROS signaling of human tumor cells, Biol. Chem. 391, 675-693, 2010) it was checked which of the single domain VHH fragments binding to SOD actually results in an inhibition of SOD, what is expressed in the tumor system used as ROS-dependent apoptosis induction in the cells, since by the inhibition of SOD the concentration of free superoxide anions dramatically increases due to the absence of the enzymatic dismutation and results in a parallel indirect inhibition of catalase. In the following, this is expressed as ROS-dependent apoptosis induction. In a further control trial the specific inhibition of SOD by recombinant single domain VHH fragments was verified by the fact that the increasing effect of these fragments on apoptosis induction by exogenously added HOCl was examined, as described in Bauer 2013 (HOCl-dependent singlet oxygen and hydroxyl radical generation modulate and induce apoptosis of malignant cells. Anticancer Res 33: 3589-3602, 2013).

Experiment [5] concerns the target T2, human SOD1. Description: Check for inhibition (neutralization) of SOD, ROS-dependent apoptosis induction and HOCl control trial. It is filed as cell-based. On the set-up: endogenous in cells; host or cells: MKN-45 human gastric carcinoma cells. The source says:
Thus, the inhibition of the SOD mediated by single domain VHH or Fab fragments (comparison) can be determined by the fact that the apoptosis induction of tumor cells by exogenously added HOCl is employed as the test system. HOCl in a concentration depending manner induces apoptosis that is based on the interaction between HOCl and superoxide anions that results in the formation of aggressive hydroxyl radicals (Bauer G. HOCl-dependent singlet oxygen and hydroxyl radical generation modulate and induce apoptosis of malignant cells. Anticancer Res 33: 3589-3602, 2013). […] That is, the neutralizing effect of single domain VHH or Fab fragments can be determined by checking whether the inhibition of the apoptosis is abolished again by the single domain VHH or Fab fragments to be tested. The quantitative employment of said test system requires linking several simple steps the skilled person is familiar with. In the first step the concentration of commercially available HOCl (or sodium hypochlorite that sufficiently forms HOCl in medium) is determined that generates a significant quantifiable apoptosis signal within a reasonable trial time (1-2 hours). […] As soon as the first two steps have been satisfactorily performed there can take place the actual test of the inhibiting effect of the single domain VHH or Fab fragments. For that, selected concentrations of the fragments to be tested are pre-incubated for 20 minutes with the optimal concentration of SOD determined in advance in step #2. Subsequently, said mixture is added to the test cells. Thereafter, HOCl is added and the apoptosis induction is determined. […]
The preparation was by immunizing alpacas with human SOD1 (SOD1=Cu/ZnSOD [EC 1.15.1.1] purified from human erythrocytes, obtained from Sigma (Schnelldorf), catalogue number S 9636) under supervision of a veterinary, obtaining RNA from the B cells of the animals, reverse transcription, cloning in E. coli and isolation via the phage display technology. […] In the following, this is expressed as ROS-dependent apoptosis induction. […]

T2 sequence (P00441 2-154 limits assumed): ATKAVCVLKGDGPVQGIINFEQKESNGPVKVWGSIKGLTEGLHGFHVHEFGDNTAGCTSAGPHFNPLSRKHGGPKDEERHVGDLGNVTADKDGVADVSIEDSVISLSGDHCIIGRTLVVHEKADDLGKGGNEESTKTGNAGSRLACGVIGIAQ

B1: aCATcb0972: single domain VHH fragment that binds to and neutralizes human catalase; SEQ ID NO: 10 (protein)
VHH: MAQVQLVESGGGLVQAGGSLRLSCAASERTFNTYGMGWFRQAPGKEREFVATISWSGDSTYYADSVKGRFTISRDNAKNTMYLQMNSLKPEDTAVYYCNANSEYGDSYWGQGTQVTVSSKKKHHHHHH
modifications: catalase binding
B1: the “neutralization (inhibition) of human catalase” value with human catalase [1] is reported as “neutralize it”. Besides, in experiment [2] (25 μM FeTPPS), the “apoptosis induction in the presence of peroxynitrite scavenger FeTPPS” value was “only in the left part of the optimum curve results in a strong inhibition and then, changes the optimum curve of apoptosis induction into a plateau curve”. For the same molecule, the “apoptosis induction in the presence of NOX1 inhibitor AEBSF” value in experiment [2] (100 μM AEBSF) is listed as “inhibited by the NOX1 inhibitor AEBSF in the entire range of concentrations”. Further, the “apoptosis induction in the presence of singlet oxygen scavenger histidine” value in experiment [2] (2 mM histidine) is “does not result in an inhibition of apoptosis, but changes the optimum curve into a plateau curve”. Also, the “apoptosis induction in the presence of HOCl scavenger taurine” value in experiment [2] (50 mM taurine) is “does not inhibit in the left range of concentrations of the optimum curve, but then results in a strong inhibition of the apoptosis in the entire further range of the optimum curve”. Moreover, the “apoptosis induction in combination with 0.005 pg/ml of the complementary single domain VHH fragment” value in experiment [2] (3.5 hours, FIG. 18) is listed as “noteworthy synergistic effect”. In addition, in experiment [2] (FIG. 14), the “concentration at which both signal paths overlap” value amounted to 0.37 pg/mL, the “concentration from which no substantial inhibition by FeTPPS but very strong inhibition by taurine (HOCl path)” value was not below 0.75 pg/mL and the “concentrations at which singlet oxygen seems to play a role” value is more than 0.75 pg/mL. Also, the “concentration range of the second increase of the apoptosis” value in experiment [2] (FIG. 14, not inhibited by taurine) is not below 6.2 pg/mL. In experiment [2] (FIGS. 14A and B, 3.5 hours), the “optimum range of the apoptosis induction” value is 0 to 6.2 pg/mL. Besides, in experiment [2] (Table 1, concentration necessary for optimum apoptosis induction, taken from FIGS. 13A, 13B, 15A, 15B, 20), the optimum conc. stood at 0.4 pg/mL. In experiment [2] (Table 2, FIG. 20 experiment, 3.5 hours), this molecule registered an optimum conc. of 0.17 pg/mL. Moreover, the “apoptosis induction in MKN-45 cells” value in experiment [2] (increasing concentrations, 3-4 hours at 37° C., 5% CO2) is “induces apoptosis in the form of an optimum curve and a subsequent second increase”. Moreover, in experiment [2] (inhibitor analysis), the “ROS signaling path induced” value is “via the NO/peroxynitrite and HOCl path”. Further, the “binding to human catalase” value with human catalase [3] was “bind to human catalase”.

B2: aSODcb0987: single domain VHH fragment binding to human SOD1, but not neutralizing; SEQ ID NO: 14 (protein)
VHH: MAQVQLVESGGGIVQPGGSLRLSCVASESISEIDAMYWHRQAPGKERELVAGITNDGTRYYADSVKGRFTISRDNAKSTLYLQMNSLKFEDTAMYYCAALPNPPPGYWGQGTQVTVSSKKKHHHHHH
modifications: SOD binding
As for B2, in the experiment with human SOD1 [4], the “binding to human SOD1” value is recorded as “bind to human SOD1”. Further, the “neutralization (inhibition) of human SOD1” value with human SOD1 [5] is “do not neutralize it”.
